# According to the DeepSol protein solubility set:
# Assay: soluble on expression in E. coli; label from the status in PepcDB or PDB records
row,Sequence,soluble on expression in E. coli
1,MSLASVQDLGKVEQAAPAQKLTVTIALSLRDRDAAARYLQEVHTPSSPNYHKFLTPSEFRARYAPTEASLAKVAARLQAAGLSVKRIGSTLLQVSGPAATVQKAFGAEVHVFQNKSVVQGAAARYTAPVRASTPGIDLSDVQAVIGLDSRPHFRPHLRQLPSHLQASMDKSASAVTNGNAPGKWTVTDLARHYNITPLYNKGIHGQGATIGIVTLASFTPSDAFQYWSSIGLATDPNRLTVVDIDGGPGAPSDDGGSSETTLDVEQSGGIAPDAKIIVYQAPNTTQGFVDAFAKAIESNAADTLSVSWGEWEWFDQQSQAVNPVNGKSANVLQTYHDLFLQAALQGQTMFAASGDSGAYDVNRAAPLPQYNKVLSVDSPANQQFITAAGATTVPTTLTFHPNGKEMKIKIPTERAWGWDYLNGLCKALGKDPVACGTFPVGDGGGVSSFIGRPFYQNWLPGMQNSPAGQQLVDSSQNPPQVIATLPANFKGRNVPDISMNGDPETGYVVYYTSSKTGFSIQTNNGGTSFVAPQLAGITALLNQSLGGRLGLLNFSLYGLVATGHGYQGFGRHGAPLRDITAGNNWGYNAHRGYDQATGVGAPDVANLDAALRRYFWFEGHHHHHH,not soluble
2,MSLASYLDFEKNIQQIDEDIINAQIKGDTEAVSILKKNLEKEISKTYKNLSDFQRLQLARHPDRPYALDYIELILNDAHEIHGDRAFRDDPAIVCFMGYLGEKKIIVIGEQKGRGTKDKIARNFGMPHPEGYRKALRVAGLAEKFQIPILFLIDTPGAYPGIGAEERGQSEAIARNLYELSDLKIPTIAIVIGEGGSGGALAIGVADKLAMMKNSVFSVISPEGCAAILWNDPAKSEAATKAMKVTADDLKSQGLIDDVIDEPTNGAHRNKEAAAVAIADYVKKSLNELENIDVRELSANRMQKILKLGAYQEAEGHHHHHH,soluble
3,MSLATTHLDVCAVVPAAGFGRRMQTECPKQYLSIGNQTILEHSVHALLAHPRVKRVVIAISPGDSRFAQLPLANHPQITVVDGGDERADSVLAGLKAAGDAQWVLVHDAARPCLHQDDLARLLALSETSRTGGILAAPVRDTMKRAEPGKNAIAHTVDRNGLWHALTPQFFPRELLHDCLTRALNEGATITDEASALEYCGFHPQLVEGRADNIKVTRPEDLALAEFYLTRTIHQENT,soluble
4,MSLAVLDSGGGSALLKMGRQCEVGSQAYDSSTVSSNLQKAETNGPVGLAGTAEQEQQYDVHGNVISAAVYQKFHVYGPEDMVFDGDAGGLTIPGAGAFWGTLFTSDLQRLYKDTVSFQYNALGTYLNINFFDSSGGFLGHIQAGAVSAVVGVGGGSGSWHNWEVAEGHHHHHH,soluble
5,MSLCGIAGFFSRRPVNPAVPQAMLDELHRRGPDDASRLLLDSELNPADGGAIHNAMLHARLAIVDPRPVANQPMASDDGQVWICYNGEVYDWEIGKAELEAGGAVFRTHSDTEFILRGYQAWGIEGLLERLRGMFAFAILDKRCEKVHLARDRMGEKPLLYSLQDGDFAYGSLVRAVLPFLPADKRAFSPAAIDAYLAHRYIPSPATVFSHINRLENGYRLEFDLNTRQLTKQRYWQPKAESGDWLPELDRAVAMRTVADRPLGVLLSGGIDSTVIASRLAIQQLTQFSSFTAAFPGSTLDESGDAADSARRMGLPNVRVDMPENLAADFERIVADLDQPFADPSSFPTWYLAREVTKHVKVVLVGDGGDELLAGYKRMGKHLRTRWRQNIRLPLPIKPQLDSKRGKLATELAMDWKSAYSLRFSGFTPGQRSFLQGGRKLEKLCHWRAPDDIGPEPGDGSPGLHQLLELDFANYLPDYILQKSDLCTMAHGLEGRAPLLDHGFYQRLLSTSAAERYTRPAKLIFRRAIHPALPTDFFQRKKRGFNPPLSGWLKTSLAPRFDGLGSRLAEASGGQLDAGAVDAFARAYRDGAGHLAEQMLQLLILDESLTQLRRLCRELGEGHHHHHH,soluble
6,MSLCGIVAFYYPEINDKQAAIGKMMATIQHRGPSSDGMYTNDKVALGFRRLSIIDLRCGSQPIYNEDRSRAIIFNGEIYNFKPLREELIKAGHTFSTKADTEVILHGYEEWGMDGILKRVRGMFAFIIWDDNTQTMYGARDFFGIKPMYYQDVDGHLLVGSELKSFLAFPHFKKELNTEAVKPYLMNQYNDLKETFFKGVYRFQPGHWFEYKDGKMKTHQYWDAEYKDNNLSFEETVKKINEDLKETVDLYRNADVKVGAFLSEGVDSSFLTALLDPDEVFSIGFDDNTYDEASKAKALADINGWHFYADKVYSEEAMRDFPEMQYHMDEPDANPSIIPLWYLCKLARKHVTVALSGEGADELFAGYVNYGMHTHNNVIKVFTDKLKKLPKGKRVKLAHKIKKMPNFPGKVHLYTNLAEPSEFYVGQSVIYDMDYPTIFTSKDANAVLQPSYRNKLTVNGNYQEDFKKVKDLDNVKQMQYIDLHHFMLNDIEQKADKISMAHSLELRVPYLDVKIAKLANSIPSKYLVNKYDTKYALRKASEQVLPDEWAKRPKLGFPTPIKQWLQEERFYKQVRDLFSEDFVNDIFEQKKILDLLDENYNGDGSHRRQIWVIYTFLVWYKLFFVDYEEGHHHHHH,soluble
7,MSLDAAQAMSKIPVIGKIVKAITFIEIKEEKDQSSIDVKTPALSGLSNKELENSINEKYLKESQQLYKEFIQSTSKNKKGHLSIYSDYETVTDTPDLLSIRRNIETTQASSYTQSRYITIDKKNDILLTLKSLFKDERYIKVISQNIKEQMKQQMKEDPNKIYWLTDEDAEPFKTILPDQTFYITEDHKLVISFDEYEVAPGYMGVTEFTIPTGVISNLLVGERYIREGHHHHHH,soluble
8,MSLDANVRTVKWNGIPLHEASSAIVKEETNGDFYLTVRYPITDSGIYQLIKEDMLIKSPVPVLGAQLFRIKKPIENDDSMDITAYHVSDDIMKRSITPVSVVGQGCAMALSQMVQNAKTGLGDFSFTSDIMDSRTFNTTETETLYSVLMDGKHSIVGTWEGELVRDNFALSIKRSRGADRGVVITTHKNLKSYQRTKNSQGVVTRIHARSTFKPDGAEDEVTLRVSVDSPLINSYPYINEKEYENNNAETVEDLRKWAEAKFTNEGIDKVSDAIEIEAYELDGQVVNLGDTVNLKSRKHSADLYKKAIAYEFNALTEEYISITFDDKPGVGGSGVSSGLSNVADAILVASATAQDVAVQRAVKNANAAFDAEFGKTKTKINDDIEIAKAKVESFKSELSNRMDNQLLPLATEAKNLASQAQADLTRKEIELRAELNREGHHHHHH,not soluble
9,MSLDASDDSLIGRITEVRAGRFAARLLSDEEGFRNEVSLGDEVQHPGQVGTYVSIRNGTFRILALVREVSGGAAGSAAGSAMQLVPLGEFNDKGAFSRGVRRYPVPGAEVHAASPQEINAVFARTRNLRFNPGYLPNHPATGVYLDPSALCSRHFAILGQSGAGKSWTVASLLQRMLASAPRAHIILLDLHGEYCWRGADGVLHSTFPPMATRAMDARELEIPYWLMSFAELVDLLIERDDPAASIQTAFLRETVFELKRRSARELGLEGVSIDAPVYFSLQEVYERFKEANEHRTDFGKTKGPLFGQFDDFLLKLGSRLHDVRYDFLLNPARRTRSESLPDLLRDFVGLGEPRCQISVIDLSPVPFDVRPTVSAQIGRLAFEFNYWNLDRREFPILLVCEEAHTYIPRERATQYEGTRKSMERIAKEGRKYGVGLAVVSQRPHELSETVLSQCGSYICLRISNPDDQAYVRKLVPEGEADLVDVLTALGRGEALILGEATPLPVRCQIFRPDEGHHHHHH,not soluble
10,MSLDDGTGLFTIGQLARRTGLSVRTIRYWSDEGALPPVTRSSGGYRLYDAGSVARLELIRTLRELGLGLDDVREVLAGETTVAEVAATHVTALDAQIRALKVTRAVLSTVARRGSTAEEMTLMNKLARLSAAERRRILEEFADEMFRGLDTADPVIRERMRNTAVDLPDEPTPEQVDAWVELVELLQDPEFRAQMRAAAEFNAADRGHDSPAGASLWFVRRLVQLAADARQRGIAPEAPEAEEVLRELLGEADGAADRAAVLERLEATSNDRVARYRELLAVVKGGGPLPAHREEFGWVVAALRAREGHHHHHH,soluble
11,MSLDFSEPLLGFEPRDTEIGRRLEVWKAMQALTGPKNLLSLSPDPEMNSSSLLSTLSPAAWGRAEESVVRTKRMVGPVEVKEEENFFCGRPEKSHAKLVFVSTSGGSLWNLQAIHSMCRIEQEQIRSHISFGALCQRSAANECCPSWSLGNYLAVLSNRSSCQDTTQADTDRTLALLRFCATFYHRGVLVPACVGSSQDKPPFCAQVPAKCTGSNVVYEFLHYLLDRDFLSPQTADYQVPSLKFALLFLPIIKTSSLLDIYLDGLGDPIKVSDNYTSISGMDLGLKPRLLKYYLAEDTEGHHHHHH,not soluble
12,MSLDGKPLADKMRPTTLNNYMGQNKVLGENTMLRNLLQANDIPSIILWGPPGCGKTTLAHIIAKNAQKSSSRFVTLSATSASTSDVREFIKQAQNEQRLFKRKTILFVDEIHRFNKMQQDTFLPHVECGTITLIGATTENPSFQVNTALLSRCRVIVLEKLSVEAMETILMRAVDSLGLKVLKDGEQLVGSSSDVSETSVYVEEKALTTLAHLCDGDARTGLNGLQLSVQASLAAEKDPIKQGIVIKEEHIKEGLQRSHILYDRAGEEHYNCISALHKSMRGSDKNASLYWLGRMLEGGEDPLYVARRLVRFASEDIGLADPQALTQAVSTYQACHFIGMPECDVILAQCVMYMACAPKSVTVYSAYNKVKNCLKNHKGPLPPVPLHLRNAPTKLMKGLGYGKGYKYNPNFSEPVEQDYMPEEMKGVTEGHHHHHH,not soluble
13,MSLDGQGEAVVEGHEAALLLSESRASVDPELRSAIATLPESMRRVALYHFGWQHADGTPAAGNAGKAIRPALVLTAAAALGGPGARAAAVRAAAAVELVHNFTLLHDDVMDRDATRRHRPTAWTVFGDADAILAGDALQALALRLFAADPHPASAAAATRLADCVMELCEGQHADTAMERRPPDEVTLDETLVMAEAKTGALLGCACAVGALYAGAATEDVEALDAFGREAGMAFQLIDDVIGIWGDPRHTGKPAGADLAARKKSLPVVAALTSGTPAAAELAELYTGPYDENKEDLERTALAVERAGGRDWAQAQAADRMARAMQELARAVPEPEAAGGLLALAEFVTRRSTEGHHHHHH,soluble
14,MSLDIKQLKFLIALDQTRHFGQAAALCHITQPTLSMRLRNLEDELDLVLVKRGQRFEGFTEAGERILAWARTLLAAHDGLQAEAASCRGQVVGSLRLGTVPLASFNPMHLLLPLREKYPELHFQLSSLSSEQVIDGLSRNQLDLGICYLDQVNTSFFEVIELGTTTMGLLHDTRHFQFTSDRLRWDELGDIPLGLLSKGMHYRQSLDLSFRSRGLEPNAVLESDSSFQLIQAINTGICCAIMPLDCGLEDLSEHLRIVPVADAAIHSPVGLLLRRSEPRSAIAEQCFAEARGLFQASEGHHHHHH,soluble
15,MSLDIQSLDIQCEELSDARWAELLPLLQQCQVVRLDDCGLTEARCKDISSALRVNPALAELNLRSNELGDVGVHCVLQGLQTPSCKIQKLSLQNCCLTGAGCGVLSSTLRTLPTLQELHLSDNLLGDAGLQLLCEGLLDPQCRLEKLQLEYCSLSAASCEPLASVLRAKPDFKELTVSNNDINEAGVRVLCQGLKDSPCQLEALKLESCGVTSDNCRDLCGIVASKASLRELALGSNKLGDVGMAELCPGLLHPSSRLRTLWIWECGITAKGCGDLCRVLRAKESLKELSLAGNELGDEGARLLCETLLEPGCQLESLWVKSCSFTAACCSHFSSVLAQNRFLLELQISNNRLEDAGVRELCQGLGQPGSVLRVLWLADCDVSDSSCSSLAATLLANHSLRELDLSNNCLGDAGILQLVESVRQPGCLLEQLVLYDIYWSEEMEDRLQALEKDKPSLRVIS,soluble
16,MSLDKAPERVVSVGYTDDQTVLAFGIKPVGMVDQYPNPAGQSPDINTQWPWVKDKWGDTKPEVVMKNGDTGPNFEKIAALRPDLIVAVYSEIDQAAYDKLSKIAPTVGRTKGEKEPFSAPWQDNALHIAKALGKAEEGEKMVADIQGKLDAAKQAHPEFADKTAVVLSWYKDSVAPFTSTDVRGRLVTGIGFKYETEIDKVAGGDFYTTLSPERVDLVDVDRVFVINDKADQDALKKFELFTNLDAVKNGKVSYLLDSEGPAVGAAISQGTLLSMPYAVDELVKSAGEGHHHHHH,soluble
